The experiment concerns the target soluble ectodomain from HSV-2 glycoprotein D (amino acids 26-331) containing a 6-histidine tag (herpes simplex virus 2 (HSV-2)) (UniProt Q69467). The experiment can be described thus: ELISA, gD-6H coated at 15 µg/ml, HSV8 in 5-fold dilutions from 10 µg/ml, anti-human IgG-HRP. On the technique in general: ELISA stands for enzyme-linked immunosorbent assay.
Sequence of UniProt Q69467 (Q69467 26-331, tags left off): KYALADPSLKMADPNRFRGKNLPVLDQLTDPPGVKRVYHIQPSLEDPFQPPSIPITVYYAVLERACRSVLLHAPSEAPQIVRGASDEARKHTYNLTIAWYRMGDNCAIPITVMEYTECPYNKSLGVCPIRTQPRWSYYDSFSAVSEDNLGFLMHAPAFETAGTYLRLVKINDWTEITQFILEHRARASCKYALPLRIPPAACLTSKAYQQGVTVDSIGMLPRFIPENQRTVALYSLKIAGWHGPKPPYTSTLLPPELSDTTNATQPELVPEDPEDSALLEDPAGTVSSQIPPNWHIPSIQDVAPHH

human IgG1 monoclonal antibody HSV8 had a lowest concentration with robust binding of 3 nM.
